The Immune Epitope Database (IEDB)

Tests used:
HLA-A*68:02 = test: IEDB peptide-MHC binding, cellular MHC/competitive/fluorescence; ≥ and ≤ were set here for values at or beyond the usual limits of such assays
HLA-A*02:01 = test: IEDB peptide-MHC binding, purified MHC/competitive/radioactivity; ≥ and ≤ were set here for values at or beyond the usual limits of such assays
HLA-A*02:02 = test: as above
HLA-A*02:03 = test: as above
HLA-A*02:06 = test: as above
[1] = source organism: Vaccinia virus WR
[2] = source organism: Hepacivirus hominis
[3] = source organism: Mammarenavirus machupoense
[4] = source organism: Mammarenavirus choriomeningitidis

| Sequence | IC50 (HLA-A*68:02; [1]) [nM] | IC50 (HLA-A*02:01; [1]) [nM] | IC50 (HLA-A*02:02; [1]) [nM] | IC50 (HLA-A*02:03; [1]) [nM] | IC50 (HLA-A*02:06; [1]) [nM] | further results |
| --- | --- | --- | --- | --- | --- | --- |
| LAELLEMKYA | 23300 | 2510 | 999 | 1040 | 2450 | – |
| RIKSVLDII | 14500 | 4700 | 111 | 18 | 2080 | – |
| GLRQQLEDI | ≥ 70000 | 125 | 43 | 4.7 | 4310 | – |
| YLLGDSDSVA | 10700 | 20 | 2 | 23 | 135 | – |
| FLMSFTILCL | – | – | – | – | – | IC50 (HLA-A*68:02; source organism: SARS-CoV1): 7570 nM; IC50 (HLA-A*02:01; source organism: SARS-CoV1): 9.2 nM; IC50 (HLA-A*02:02; source organism: SARS-CoV1): 0.82 nM; IC50 (HLA-A*02:03; source organism: SARS-CoV1): 213 nM; IC50 (HLA-A*02:06; source organism: SARS-CoV1): 74 nM |
| GLYIPGTSVI | ≥ 70000 | 1570 | 92 | 0.19 | 3620 | – |
| YISRDELWA | 52700 | 750 | 333 | 242 | 1200 | – |
| YLPEVISTIA | 7130 | 29 | 11 | 0.96 | 18 | – |
| KLFTIAMWLL | – | – | – | – | – | IC50 (HLA-A*68:02; source organism: SARS-CoV1): 9420 nM; IC50 (HLA-A*02:01; source organism: SARS-CoV1): 30 nM; IC50 (HLA-A*02:02; source organism: SARS-CoV1): 8.5 nM; IC50 (HLA-A*02:03; source organism: SARS-CoV1): 709 nM; IC50 (HLA-A*02:06; source organism: SARS-CoV1): 262 nM |
| SLVKESMASL | 7960 | 2360 | 994 | 7.8 | 1430 | – |
| NLLEQLIENI | 24700 | 326 | 836 | 1440 | 396 | – |
| KILSDENYLL | ≥ 70000 | 15 | 25 | 3770 | 16 | – |
| ALDGVLSTFV | – | – | – | – | – | IC50 (HLA-A*68:02; source organism: SARS-CoV1): 5200 nM; IC50 (HLA-A*02:01; source organism: SARS-CoV1): 28 nM; IC50 (HLA-A*02:02; source organism: SARS-CoV1): 3.3 nM; IC50 (HLA-A*02:03; source organism: SARS-CoV1): 28 nM; IC50 (HLA-A*02:06; source organism: SARS-CoV1): 140 nM |
| GLLGCIITSL | – | – | – | – | – | IC50 (HLA-A*68:02; [2]): 48900 nM; IC50 (HLA-A*02:01; [2]): 15 nM; IC50 (HLA-A*02:02; [2]): 35 nM; IC50 (HLA-A*02:03; [2]): 3.1 nM; IC50 (HLA-A*02:06; [2]): 316 nM |
| LLDCIMYQS | – | – | – | – | – | IC50 (HLA-A*68:02; [3]): 11300 nM; IC50 (HLA-A*02:01; [3]): 1100 nM; IC50 (HLA-A*02:02; [3]): 1540 nM; IC50 (HLA-A*02:03; [3]): 2270 nM; IC50 (HLA-A*02:06; [3]): 3280 nM |
| QVLQQNNSFI | 9960 | 1470 | 544 | 3180 | 2320 | – |
| LLSTTEWQV | – | – | – | – | – | IC50 (HLA-A*68:02; [2]): 27300 nM; IC50 (HLA-A*02:01; [2]): 67 nM; IC50 (HLA-A*02:02; [2]): 4.9 nM; IC50 (HLA-A*02:03; [2]): 95 nM; IC50 (HLA-A*02:06; [2]): 333 nM |

| Sequence | IC50 (HLA-A*68:02; [1]) [nM] | IC50 (HLA-A*02:01; [1]) [nM] | IC50 (HLA-A*02:02; [1]) [nM] | IC50 (HLA-A*02:03; [1]) [nM] | IC50 (HLA-A*02:06; [1]) [nM] | further results |
| --- | --- | --- | --- | --- | --- | --- |
| IMAFILGIII | 14700 | 1110 | 632 | 3160 | 3190 | – |
| LLPLTSLVI | ≥ 70000 | 1180 | 2390 | 621 | 1430 | – |
| GIADIRDKYM | 5930 | 1100 | 0.69 | 48 | 1780 | – |
| LLVTLAILTA | – | – | – | – | – | IC50 (HLA-A*68:02; source organism: SARS-CoV1): 16700 nM; IC50 (HLA-A*02:01; source organism: SARS-CoV1): 33 nM; IC50 (HLA-A*02:02; source organism: SARS-CoV1): 4.4 nM; IC50 (HLA-A*02:03; source organism: SARS-CoV1): 43 nM; IC50 (HLA-A*02:06; source organism: SARS-CoV1): 32 nM |
| ALMTLDDLAI | 7700 | 0.74 | 14 | 29 | 24 | – |
| SALMTLDDLA | 19100 | 249 | 210 | 2320 | 193 | – |
| KTIISEEYL | 10900 | 694 | 916 | 1220 | 150 | – |
| FMLNVSYLC | – | – | – | – | – | IC50 (HLA-A*68:02; [4]): 8480 nM; IC50 (HLA-A*02:01; [4]): 1050 nM; IC50 (HLA-A*02:02; [4]): 196 nM; IC50 (HLA-A*02:03; [4]): 1260 nM; IC50 (HLA-A*02:06; [4]): 932 nM |
| TLLLWISVKV | – | – | – | – | – | IC50 (HLA-A*68:02; source organism: SARS-CoV1): 15700 nM; IC50 (HLA-A*02:01; source organism: SARS-CoV1): 253 nM; IC50 (HLA-A*02:02; source organism: SARS-CoV1): 549 nM; IC50 (HLA-A*02:03; source organism: SARS-CoV1): 1060 nM; IC50 (HLA-A*02:06; source organism: SARS-CoV1): 875 nM |
| FLLALLSCLT | – | – | – | – | – | IC50 (HLA-A*68:02; [2]): ≥ 70000 nM; IC50 (HLA-A*02:01; [2]): 92 nM; IC50 (HLA-A*02:02; [2]): 86 nM; IC50 (HLA-A*02:03; [2]): 154 nM; IC50 (HLA-A*02:06; [2]): 592 nM |
| ALVLLILMTA | – | – | – | – | – | IC50 (HLA-A*68:02; source organism: SARS-CoV1): 12500 nM; IC50 (HLA-A*02:01; source organism: SARS-CoV1): 325 nM; IC50 (HLA-A*02:02; source organism: SARS-CoV1): 67 nM; IC50 (HLA-A*02:03; source organism: SARS-CoV1): 51 nM; IC50 (HLA-A*02:06; source organism: SARS-CoV1): 61 nM |
| SMMVILPDKI | 7290 | 6.1 | 28 | 19 | 5.7 | – |
| PVLEKKVCAI | 39700 | 1530 | 541 | 1190 | 1040 | – |
| WLKDSAIMVA | 10100 | 673 | 15 | 1320 | 4840 | – |
| YLGHSAGFT | 8450 | 1560 | 874 | 225 | 4540 | – |
| SLTQVKELGI | 7150 | 210 | 9.8 | 75 | 157 | – |
| KLWAQCVQL | – | – | – | – | – | IC50 (HLA-A*68:02; source organism: SARS-CoV1): 23100 nM; IC50 (HLA-A*02:01; source organism: SARS-CoV1): 4.7 nM; IC50 (HLA-A*02:02; source organism: SARS-CoV1): 13 nM; IC50 (HLA-A*02:03; source organism: SARS-CoV1): 194 nM; IC50 (HLA-A*02:06; source organism: SARS-CoV1): 9.5 nM |
